B1: BMP-9 (ligand, UniProt Q9UK05 320-429, looked up)
chain: SAGAGSHCQKTSLRVNFEDIGWDSWIIAPKEYEAYECKGGCFFPLADDVTPTKHAIVQTLVHLKFPTKVGKACCVPTKLSPISVLYKDDMGVPTLKYHYEGMSVAECGCR
notes: also called bone morphogenetic protein 9
B2: BMP-10 (ligand, UniProt O95393 317-424, looked up)
chain: NAKGNYCKRTPLYIDFKEIGWDSWIIAPPGYEAYECRGVCNYPLAEHLTPTKHAIIQALVHLKNSQKASKACCVPTKLEPISILYLDKGVVTYKFKYEGMAVSECGCR
B3: GDF-11 (ligand, UniProt O95390 299-407, looked up)
chain: NLGLDCDEHSSESRCCRYPLTVDFEAFGWDWIIAPKRYKANYCSGQCEYMFMQKYPHTHLVQQANPRGSAGPCCTPTKMSPINMLYFNDKQQIIYGKIPGMVVDRCGCS
notes: also called growth and differentiation factor 11
B4: Activin B (ligand, UniProt P09529 293-407, looked up)
chain: GLECDGRTNLCCRQQFFIDFRLIGWNDWIIAPTGYYGNYCEGSCPAYLAGVPGSASSFHTAVVNQYRMRGLNPGTVNSCCIPTKLSTMSMLYFDDEYNIVKRDVPNMIVEECGCA

Each binder was assayed against T1, ActRIIB-A1 (SEQ ID NO: 120) chimera-Fc protein (Homo sapiens (Human), UniProt Q13705 28-134) (assay: SPR (Biacore 8K), Fc protein captured on anti-human IgG, ligand injected).
T1 construct: Tested as chimera-Fc protein; not shown: linker (if any) and Fc domain
T1 sequence: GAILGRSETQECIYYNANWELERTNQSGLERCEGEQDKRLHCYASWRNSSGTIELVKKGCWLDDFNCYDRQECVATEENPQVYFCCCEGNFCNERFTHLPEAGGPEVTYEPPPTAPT
Protocol: (§1) The Cytiva Biacore 8k was used to measure the kinetics of the interactions between the ActRII- and chimera-Fc proteins and Activin A/Activin B/growth differentiation factor 8 (GDF-8)/GDF-11/BMP-9/BMP-10. Series S CM4 Sensor Chips were immobilized with anti-human capture antibody using the reagents and protocol in the Biacore Human Antibody Capture Kit (GE Life Sciences). Briefly, anti-human IgG was diluted to 25 μg/mL in immobilization buffer. The carboxylated surface of the sensor was activated by injecting a mixture of EDC and NHS. The anti-human IgG was injected into the activated sensor chip flow cells at 10 μL/min for a total of 7 minutes until the chip reached an immobilization level of 3000 resonance units (RU). Ethanolamine was injected to deactivate the sensor surfaces. The chip has 8 flow cells to be used for binding analysis, each with an in-line reference surface to subtract instrument noise and non-specific binding to the sensor chip. The ActRII- and chimera-Fc proteins were captured in their own flow cell to allow for a maximum analyte binding response of 20-30 RU. This was done by injecting 10-20 μL of the ActRII- and chimera-Fc proteins into the flow cells at a concentration of 2 μg/mL until 60-90 RU was captured. Ligand at a single concentration was injected at […] for 60 seconds and then allowed to dissociate under buffer flow for no less than 5 minutes. After the cycle completed, captured protein was stripped from the chip with an injection of 3 M magnesium chloride, the regeneration buffer provided with the Biacore Human Antibody Capture Kit. Each ligand was injected in a concentration series, including a buffer only 0 nM concentration to serve as a double reference for subtracting out instrument noise. The data were analyzed using the Biacore Insight Evaluation Software.

B1 and B2 are within 1.5-fold of each other in Kd: 0.0151 nM for the first, 0.0175 nM for the second.

B3 and B4 cannot be ordered by Kd: under 0.001 nM for the first, under 0.001 nM for the second.

What follows are binders tested against T2, ActRIIB (SEQ ID NO: 31) Fc protein (human, UniProt Q13705 20-134) in the same assay as above.
T2 construct: also called ActRII-Fc; wild-type extracellular ActRIIB; not shown: linker (if any) and Fc domain
T2 sequence: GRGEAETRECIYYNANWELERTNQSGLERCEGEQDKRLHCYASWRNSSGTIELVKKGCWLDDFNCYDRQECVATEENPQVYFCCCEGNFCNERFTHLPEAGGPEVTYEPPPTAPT
Protocol: as §1

First: B1
Second: B2
The Kd of the first is 3.4-fold higher: 0.0358 nM for the first, 0.0105 nM for the second.

In the case of B3, the Kd is reported as under 0.001 nM.
